Reference: publication PMC12529230, “The Lrs14‐Like AbfR1 Homolog From Metallosphaera sedula Is a Nucleoid‐Organizing Protein” (MicrobiologyOpen, 2025)

T1: AbfR1Ms (Metallosphaera sedula DSM5348, UniProt A4YIR2 1-115)
T1 sequence: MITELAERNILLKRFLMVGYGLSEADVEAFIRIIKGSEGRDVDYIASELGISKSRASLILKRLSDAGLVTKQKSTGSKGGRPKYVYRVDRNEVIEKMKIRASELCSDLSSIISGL

B1: AbfR1 Ms (recombinant, C-terminal His-tag) (natural protein, Metallosphaera sedula, UniProt A4YIR2 1-115, looked up)
chain: T1 sequence
notes: 115 amino acids, estimated MW 12.7 kDa; codon-optimized synthetic gene fragment (446 bp) cloned NdeI/XhoI into pET24a; No tag cleavage is described; A disulfide bridge between the two chains is proposed (C105, from an AlphaFold model and DTT sensitivity); also called Lrs14-like AbfR1 homolog from Metallosphaera sedula; HhcR; source: E. coli Rosetta (DE3), pET24a; purified (heat treatment 70°C, …)
B2: ORF abfR1Sa (dsDNA)
DNA 1: GTCTTTCTGAATCAGAAATAGACACATTTCTAAGGATACTTGAAAGCAAAGAAGGTAAGGATATTGATGCAATATCTGCAGAACTAAAAATTAGTAAAAG
DNA 2: CTTTTACTAATTTTTAGTTCTGCAGATATTGCATCAATATCCTTACCTTCTTTGCTTTCAAGTATCCTTAGAAATGTGTCTATTTCTGATTCAGAAAGAC

Legend:
[1] = target: the molecule itself; assay: SEC; Enrich SEC 650 10 x 300 column, 20 mM HEPES, 150 mM NaCl, 1 mM DTT, 5% glycerol, pH 7.5; AbfR1 Ms concentrated to 1.9 mg/mL; MW from a standard curve
[2] = target: T1, AbfR1Ms; assay: EMSA; apparent; salmon sperm competitor DNA; EMSA: 20 mM Tris-HCl pH 8.0, 50 mM NaCl, 0.4 mM EDTA, 0.1 mM DTT, 1 mM MgCl2, 12.5% glycerol, 25 ug/mL sonicated salmon sperm DNA, 25 min at 37 C; AFM: same buffer, 15 min at 37 C, then NiCl2/HEPES adsorption on mica; settings: protein: recombinant; tags: C-terminal His; chain copies: 2; label: 5'-32P on one strand; blunt

Binder | stoichiometry N [1] | Kd [2]
B1 | 2 | –
B2 | – | 546 nM
